Consider 17 molecules from US20230095569A1 (ANTENGENE BIOLOGICS, published 2023).

Assay [1] concerns the target T1, human Claudin18.2 (CLDN18.2) (human, UniProt P56856 1-261).
T1 construct: the cell line is named under assay; also called human Claudine18.2; hClaudin18.2
As to the kind of experiment: FACS on CHOK1-18.2 cells.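 Note: antibody binding to the cells detected with a fluorescently labelled secondary antibody and read out as median fluorescence intensity by flow cytometry.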
Method: (§1) The specificity and cross-reactivity of these subclones were confirmed with FACs analysis. […] Fluorescent dye-conjugated secondary antibody was used to detect the binding of the primary antibody with the cells. Median fluorescence intensity (MFI) was measured by FACs analysis.

Assay [2] addresses T2, human Claudin18.1 (CLDN18.1) (human, UniProt P56856 1-261).
T2 construct: whole, on cells; also called human Claudine18.1
As to the kind of experiment: FACS on CHOK1-18.1 cells.
Method: as §1

Assay [3] has as its target T2, human Claudin18.1 (CLDN18.1). The assay can be described thus: FACS on CHOK1-18.1 cells. The source holds these as a separate data set.
Method: as §1
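Throughout, for result: antibody binding to cells detected with a fluorescently labelled secondary antibody, read out as median fluorescence intensity (MFI) by flow cytometry.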

B1: Ab09 (antibody, V domains shown)
VH: EVQLQQSGPELVKPGTSVKMSCKASGYTFTDYNMHWVKLSHGKSLEWIGYINPNNGGTIYNQRFKGKATLTVNKSSRTAYMDLRSLTSEDSAVYYCARQGYYGNSMDYWGQGNSVTVSS
VL: DIVMTQSPSSLTVTPGERVTMSCKSSQSLLNGGNQRNYLTWYQQKPGQPPKLLIYWASTRESGVPDRFAGSGSGTDFTLTISRVQAEDLSFYYCQNSYFYPFTFGSGTKLDLR
notes: mouse monoclonal (hybridoma)
In the case of B1, the “FACS MFI” value turned out to be 17100 in assay [1] and 95.6 in assay [2]. For the same molecule, in assay [3], the binding result was “no binding”.

B2: Ab12 (antibody, V domains shown)
VH: EVMLVESGGGLVKPGGSLKLSCAASGFTFSSYTMSWVRQTPEKRLEWVATIIGGYGNTYYADSVKGRFTISRDSAKNTLYLQMLSLRSEDTALYYCTRLGQTQRNAMDYWGQGTSVTVSS
VL: DILMTQSPSSLSVSAGEKVTMSCKSSQSLLNSGNQRNYLAWYQQKPGQPPKLLIYGASTRESGVPDRFTGSGSGTDFTLTISSVQAEDLAVYYCQNDYYYPLTFGAGTKLELK
notes: mouse monoclonal (hybridoma)
Regarding B2, the results for the “FACS MFI” value in assay [1] and in assay [2] were 8820 and 83.8, respectively. In addition, in assay [3], the binding result is recorded as “no binding”.

B3: Ab16 (antibody, V domains shown)
VH: EVMLVESGGGLVKPGGSLKLSCAASGFTFNSYTMSWVRQTPEKRLEWVATITVIGGNTYYLDSVKGRFTISIDNGKNTLYLQMSSLRSEDTALYYCARMGQTQRNAMDYWGQGTSVTVSS
VL: DIVMTQSPSSLSVSAGQKVTMRCKSSQSLLNSGNQKNYLAWYQQKLGQPPKLLIYGASTRESGVPDRFSGSGSGTDFTLTITSVQAEDLAVYYCQNDYSFPLTFGAGTKLELK
notes: mouse monoclonal (hybridoma)
On to B3, for which the results for the “FACS MFI” value in assay [1] and in assay [2] were 8170 and 80.8, respectively. Also, in assay [3], the binding result was “no binding”.

B4: Ab13 (antibody, V domains shown)
VH: EVRLVESGGGLVKPGGSLKLSCAGSGFTFSSYTMSWVRQTPEKRLEWVATITIGVNIYYLDSVKGRFTISRDNAKNTLYLQMNSLRSEDTALYYCTRLGQTQRNAMDYWGQGTSVTVSS
VL: DIVMTQSPTSLSVSAGEKVTMTCKSSQSLLNSGNQKNYLAWYQEKPGQPPKLLIYGASTRESGVPDRFTGSGSGTDFTLTISSVQAEDLAVYYCQNNHFYPLTFGAGTKLELK
notes: mouse monoclonal (hybridoma)
Turning to B4, the “FACS MFI” value in assay [1] turned out to be 7460; in assay [2], 82.3. Besides, the binding result in assay [3] is listed as “no binding”.

B5: Ab15 (antibody, V domains shown)
VH: EVMLVESGGDLVKPGGSLKLSCAASGFTFSTYTMSWVRQTPEKRLEWVATIVGGGGYTYYLDSVKGRFTISRDNAKNTLYLQMISLRSEDTALYYCARMGLTQRNALDYWGQGTSITVSS
VL: DIVMTQSPSSLSVSEGEKVTLNCKSSQSLFNSGNQKNYLAWYQQKPGQPPKLLIYGASTRESGVPDRFTGSGFGTDFTLTISSVQAEDLAVYYCQNDHTYPLTFGAGAKLELK
notes: mouse monoclonal (hybridoma); also called mAb Ab15
Turning to B5, the “FACS MFI” value in assay [1] was 7390; in assay [2], 80.8. Moreover, the binding result in assay [3] is “no binding”.

B6: Ab05 (antibody, V domains shown)
VH: DVKLVESGEDLVKPGGSLKLSCAASGFTFSNYAMSWVRQTPEKRLEWVAYVSSGGDYIYYADTVKGRFIISRDNARNTLYLQMNSLRSEDTAMYYCARVYFGNSLDYWGQGTTLTVSS
VL: DIVMTQSPSSLTVTAGEKVTLSCKSSQSLLNGGNQKNYLTWYQQRPGQPPKLLIYWASTRESGVPDRFTGSGSGTDFTLIISSVQAEDLAVYYCQNDYYYPWTFGGGTKLEIK
notes: mouse monoclonal (hybridoma)
For the molecule B6, the “FACS MFI” value in assay [1] is 16000; in assay [2] it was 97. For the same molecule, the binding result in assay [3] was “no binding”.

B7: Ab08 (antibody, V domains shown)
VH: QVQLQQPGAELVKPGASVKLSCKASGYTFTSYLLHWVKQRPGQGLEWIGMIHPNGGSTNYNEKFKTKATLTVDKSSSTAYMQLSSLTSEDSAVYYCAPVYFGNSFAYWGQGTLVTVSA
VL: DIVMTQSPSSLTVTAGEKVTMSCKSSQSLLNSGNQKNYLTWYQQKPGQPPKLLIYWASTRESGVPDRFTGSGSGTDFTLTISSVQAEDLAVYYCQNDYYYPFTFGSGTKLEKK
notes: mouse monoclonal (hybridoma)
As to B7, the results for the “FACS MFI” value in assay [1] and in assay [2] were 19400 and 97, respectively. Also, in assay [3], the binding result is reported as “no binding”.

B8: Ab14 (antibody, V domains shown)
VH: QVQLQQPGAELVKPGASVKLSCKASGYTFTSYLLHWVKQRPGQGLEWIGMIHPNGGSTNYNEKFKTKATLTVDKSSSTAYMQLSSLTSEDSAVYYCAPVYFGNSFAYWGQGTLVTVSA
VL: DIVMTQSPSSLTVTAGEKVTMSCKSSQSLLNSGNQKNYLTWYQQKPGQPPKLLIYWASTRESGVPDRFTGSGSGTDFTLTISSVQAEDLAVYYCQNDYYYPFTFGSGTKLEKK
notes: mouse monoclonal (hybridoma)
In the case of B8, the “FACS MFI” value in assay [1] turned out to be 21400; in assay [2], 97. In addition, the binding result in assay [3] is given as “no binding”.

B9: Ab06 (antibody, V domains shown)
VH: EVQLVASGGGLVKPGGSLKLSCAASGITFRSYAMSWVRQTPEKRLEWVATITDGGSYIFYPDNVKGRFTISGDHAKNNLYLQMSHLKSEDTALYFCVRLYYGNSFAYWGQGTLVTVSA
VL: DIVMTQSPSSLTVTAGEKVTLNCKSSQSLFNSGNQKNYLTWYQQKPGQPPKLLIYWASTRESGVPDRFTGSGSGTDFTLTFSSVQAEDLAVYYCQNAYIYPFTFGSGTKLEIK
notes: mouse monoclonal (hybridoma)
Turning to B9, the “FACS MFI” value in assay [1] worked out at 46100; in assay [2], 789. Besides, in assay [3], the binding result was “no binding”.

B10: Ab17 (antibody, V domains shown)
VH: QVQLKESGPGLVAPSQSLSITCTVSGFSLTSYAISWVRQPPGKGLEWLGEIWTGGGTNYNSALKSRLSISKDNSKSQVFLKMNSLQTDDTARYYCGRLSYGNSLDYWGQGTTLTVSS
VL: DIVMTQSPSSLTVTAGEKVTMSCKSSQSLLNSGNQKNYLTWYQQKPGQPPKLLIYWASTRESGVPDRFTGSGSGTDFTLTVSSVQAEDLAVYYCQNNFIYPLTFGPGTKLELK
notes: mouse monoclonal (hybridoma)
In the case of B10, the “FACS MFI” value is 11500 in assay [1] and 82.3 in assay [2]. In assay [3], the binding result is listed as “no binding”.

B11: Ab11 (antibody, V domains shown)
VH: EVMLVESGGDLVKPGGSLKLSCAASGFTFSRYTMSWVRQTPEKRLEWVATVSVGSGNTYYLDSVKGRFTISRDNAKNTLFLQMNSLRSEDTALYYCTRLGQTQRNAVDYWGQGTSVTVSS
VL: DIVMTQSPSFLSVSAGEKVTMSCKSSQSLFNGGNQKNYLAWYQQKPGQPPKLLIYGASTRDSGVPDRFTGSGSGTDFTLTISNVQAEDLAIYFCQNDHSFPLTFGAGTKLELK
notes: mouse monoclonal (hybridoma)
As for B11, the “FACS MFI” value in assay [1] stood at 9800; in assay [2] it was 80.8. Also, the binding result in assay [3] is “no binding”.

B12: Ab19 (antibody, V domains shown)
VH: EVMLVESGGDLVKPGGSLKLSCAASGFSFSRYTMSWVRQTPEKRLEWVATVSVGSGNTYYLDSVKGRFTISRDNAKNTLFLQMSSLRSEDTALYYCARMGQTQRNAVDYWGQGTSVTVSS
VL: DIVMTQSPSSLSVSAGEKVTMSCKSSQSLFNSGNQKNYLAWYQQKPGQPPKLLIYGASTRESGVPDRFTGSGSGTDFTLTISNVQAEDLAVYLCQNDHSFPLTFGAGTKLEL
notes: mouse monoclonal (hybridoma)
In the case of B12, the “FACS MFI” value in assay [1] was found to be 7340; in assay [2], 80.8. The binding result in assay [3] is recorded as “no binding”.

B13: Ab24 (antibody, V domains shown)
VH: EVKLVESGGGLVKPGGSLKLSCAGSGFTFSSYTMSWVRQTPEKRLEWVATITIGVNIYYLDSVKGRFTISRDNAKNTLYLQMNSLRSEDTALYYCTRLGQTQRNAMDYWGQGTSVTVSS
VL: DIVMTQSPTSLSVSAGEKVTMTCKSSQSLFNSGNQKNYLAWYQEKPGQPPKLLIYGASTRESGVPDRFTGSGSGTDFTLTISSVQAEDLAVYYCQNVHFYPFTFGAGTKLEL
notes: mouse monoclonal (hybridoma)
Consider B13, for which the “FACS MFI” value in assay [1] was found to be 10100; in assay [2], 80.8. Further, the binding result in assay [3] is reported as “no binding”.

B14: Ab25 (antibody, V domains shown)
VH: EAQLQQSGPELVKPGASVKIFCKASGYTFTDYYINWVKQSHGKSLEWIGDINPNNGGTTYNQKFKGKATLTVDKSSSTASMELRRLTSEDSSVYYCARRDAMDYWGQGTSVTVSS
VL: DIVMTQSQKFMSTTVGDRVSITCTASQNVGPAVAWYQQKPGQSPKLLIYSASRRFTGVPDRFTGSGSGTVFTLTINNVQSEDLADYFCQQYISYPLTFGAGTKLELK
notes: mouse monoclonal (hybridoma)
Regarding B14, the “FACS MFI” value worked out at 12600 in assay [1] and 82.3 in assay [2]. Besides, in assay [3], the binding result is “no binding”.

B15: Ab02 (antibody, V domains shown)
VH: QVQLKESGPGLVAPSQSLSITCTVSGFSLTSYAINWVRQPPGKGLEWLGVIWTGGGTNYNSALKSRLSINKDNSKSQVFLKMNSLQTDDTARYYCARFYDGYYSWFAYWGQGTLVTVSA
VL: DIVMTQSHKFMSTSVGDRVSITCKASQDVGTAVTWYQQKPGQSPKLLIYWASTRHTGVPDRFTGSGSGTDFTLTISNVQSEDLADYFCQQYSSYPFTFGSGTKLEIK
notes: mouse monoclonal (hybridoma)
In the case of B15, the “FACS MFI” value came to 1380 in assay [1] and 101 in assay [2]. In addition, the binding result in assay [3] is recorded as “no binding”.

B16: Ab18 (antibody, V domains shown)
VH: QVQLKESGPGLVAPSQSLSITCTVSGFSLTTYGINWVRQPPGKGLEWLGVIWGDGSTNYHSALISRLSISKDNSKSQVFLKLNSLQTDDTATYYCVKSSYYGNAMDYWGQGTSVTVSS
VL: DIVMTQSPSSLTVTAGETVTMSCKSSQSLLNSGNQKNYLTWYQQKPGQPPKLLIYWASTRESGVPDRFTGSGSGTDFTLTISSVQAEDLAVYYCQNVYSYPFTFGSGTKLEI
notes: mouse monoclonal (hybridoma)
In the case of B16, the “FACS MFI” value in assay [1] turned out to be 9910; in assay [2], 79.4. Moreover, in assay [3], the binding result is given as “no binding”.

B17: Ab07 (antibody, V domains shown)
VH: EVQLQQSGPELVKPGASVKISCKASGYSFTDYFMNWVKQSHGKGLEWIGRINPYNGDTFYNQKFKGKATLTVDKSSSTAHMELLSLTSEDFAVYYCALYDGYWGAFVYWGQGTLVTVSA
VL: DIQMTQSPASLSVFVGETVTITCRASENIYSNLAWYQQKQGKSPQLLVYAATNLADGVPSRFSGSGSGTQYSLKINSLQSEDFGSYYCQHFWGTPLTFGAGTKLELK
notes: mouse monoclonal (hybridoma)
B17: the “FACS MFI” value in assay [1] turned out to be 13700; in assay [2] it was 764. Also, the binding result in assay [3] is “no binding”.
